Experimental data from paper PMC6498573, “Genomic analyses of aminoacyl tRNA synthetases from human-infecting helminths” (BMC Genomics, 2019).

Tests used:
[1] = target: T1, Onchocerca volvulus prolyl tRNA synthetase (OvPRS) (Onchocerca volvulus, UniProt A0A2K6VID2); assay: malachite green aminoacylation assay with recombinant purified OvPRS ([…] proline, […] ATP, […] enzyme); type: biochemical
T1 construct: OvPRS construct of 497 amino acids (279–775; 57 kDa), MBP-His tag removed by TEV
T1 sequence (A0A2K6VID2 279-775): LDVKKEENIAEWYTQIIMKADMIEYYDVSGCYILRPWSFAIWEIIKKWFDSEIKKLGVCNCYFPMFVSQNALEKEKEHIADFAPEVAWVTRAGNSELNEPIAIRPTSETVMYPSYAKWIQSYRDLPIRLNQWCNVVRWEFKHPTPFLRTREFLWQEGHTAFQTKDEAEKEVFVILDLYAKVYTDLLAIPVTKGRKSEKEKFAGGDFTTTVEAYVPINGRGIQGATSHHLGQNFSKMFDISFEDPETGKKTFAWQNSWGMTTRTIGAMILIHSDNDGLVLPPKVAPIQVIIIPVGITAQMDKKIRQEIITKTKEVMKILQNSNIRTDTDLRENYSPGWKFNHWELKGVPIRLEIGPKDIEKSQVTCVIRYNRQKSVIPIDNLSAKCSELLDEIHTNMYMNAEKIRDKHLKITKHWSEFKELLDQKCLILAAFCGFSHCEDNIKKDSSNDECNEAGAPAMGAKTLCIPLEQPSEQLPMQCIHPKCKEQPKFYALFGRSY

purified protein [2] = substrate: Nc1ncnc2c1ncn2[C@@H]1O[C@H](COP(=O)(O)OP(=O)(O)OP(=O)(O)O)[C@@H](O)[C@H]1O; assay: purified protein; type: biochemical, Onchocerca volvulus
purified protein [3] = substrate: O=C(O)[C@@H]1CCCN1; assay: purified protein; type: biochemical, Onchocerca volvulus

O=C(CC1NCCCC1O)Cn1cnc2cc(Br)c(Cl)cc2c1=O (stereo not drawn) [HF, halofuginone]
IC50 [1]: ~30 nM

B1: Onchocerca volvulus prolyl tRNA synthetase (OvPRS) (Onchocerca volvulus) (protein)
chain: T1 sequence (A0A2K6VID2 279-775)
notes: OvPRS construct of 497 amino acids (279–775; 57 kDa), MBP-His tag removed by TEV
Km (purified protein [2]): 18.9 ± 2.2 µM | Km (purified protein [3]): 24.17 ± 11 µM
